Data as given in the supplement of paper PMC9170038.

What was measured:
MS2 coat protein [1] = test: apparent KD of MS2 coat protein, switch ON state; designed switch direction (-1 OFF switch, 1 ON switch): 1; higher = weaker reporter binding; conditions: FMN input: 0 or 200 uM; Eterna round: R93 (includes R88 designs)
Outline: (§1)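 Designed RNA switches were made by on-chip transcription from Illumina sequencing clusters and then titrated with SNAP-549-labelled MS2 coat protein. Twofold steps ran from 0.7 or 1.5 nM to 3 µM, each lasting 0.8–1.5 h early and 10–20 min late, in 100 mM Tris-HCl pH 7.5, 80 mM KCl, 4 mM MgCl2, without or with constant ligand. Apparent KD is the per-design median of normalised cluster binding-curve fits.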

MS2 coat protein [2] = test: apparent KD of MS2 coat protein, switch OFF state (with FMN for OFF switches, without FMN for ON switches); designed switch direction (-1 OFF switch, 1 ON switch): 1; higher = weaker reporter binding; conditions: FMN input: 0 or 200 uM; Eterna round: R93 (includes R88 designs)
Outline: as §1

| Sequence | apparent KD of MS2 coat protein (MS2 coat protein [1]) | apparent KD of MS2 coat protein (MS2 coat protein [2]) |
| --- | --- | --- |
| GCUGGGCUACACUAGGAUAUGGGUGUCUAAACAUGAGGAUCACCCAUGUGAUGGCAAAACAAAGCUCAGAAGGAGUCGUAGCCCA [Inrionarus] | 14.7 nM | 22.3 nM |
| GGAAGACAUGAGGAUCACCCAUGUGGGAAUAUGGGAGGAUAUACAAAGACGAGAGUCAGAGUAGAAGGCCUAGGAG [salish99-ss1-101] | 68.2 nM | 106 nM |
| GGAUAUAUACAGGAGGAUAUGAGAACAAAGACAUGAGGAUCACCCAUGUACAAAAGGUGGAACAAUCAGAAGGUCUAAACAACAAA [Thing 1 and Thing 2] | 61 nM | 49.7 nM |
| GGCUGCGUUGUGAAGGAUAUCCGCGUCUGGACAUGAGGAUCACCCAUGUAUACUUGGAUCGUGCAGGAGAAGGUCAAGGGUGAUU [JR_SS002_Sub1211] | 130 nM | 63.3 nM |
| GGGAAUAAAAGAGAGGAUAUCCAAAGGAAAACAUGAGGAUCACCCAUGUAAAAGGAAGGAAAUUGGGAGAAGGCUCAAGAUAGGG [salish99-ss2-012] | 29.4 nM | 26.1 nM |
| GGGAGACAUGAGGAUCACCCAUGUGAGAAGAGGCGAGGAUAUCGAAAGAAAGAAGAGAAACGAGAAGGCGCGAGAG [salish99-SS1-057] | 48 nM | 59.8 nM |
| GGGAGACAUGAGGAUCACCCAUGUGAGAAGAGGCGAGGAUAUCGAAAGAAAGAAGAGAAACGAGAAGGCGCGAGCG [salish99-SS1-060] | 32.5 nM | 86.7 nM |
| GGGAGGAAGAGAGAGGAUAUCCAAAGGAAAACAUGAGGAUCACCCAUGUAAAAGGUAGGAAAUUGGGAGAAGGCUCAAAAGACGG [salish99-ss2-047] | 28.1 nM | 52.5 nM |
| GGGAGGAAGAGAGAGGAUAUCCAAAGGAAAACAUGAGGAUCACCCAUGUAAAAGGUAGGAAAUUGGGAGAAGGCUCAAAAGAGGA [salish99-ss2-039] | 31.3 nM | 30.3 nM |
| GUAAAACAUGAGGAUCACCCAUGUAGAAAUAUGGGAGGAUAUACGAAGACGAAAGUCAAAGUAGAAGGCCUAAAGU [Mat - Same State 1 - Eli mod - D111] | 26.1 nM | 54.9 nM |
| GUGGUGUAGAUACAGGAUAUGUUGCUCGUAACAUGAGGAUCACCCAUGUAUCUAUGAGAUUAAAUGCAGAAGGGUGCACACCACG [Maerveen] | 17.3 nM | 374 nM |
| UAAAAAAAAAGGCAGGAUAUCCAAAAUAAAACAUGAGGAUCACCCAUGUAAAAAAAAAAAAAAUGGGAGAAGGGCCAAAAAAAAU [Mat - Same State 2 - Mod - 159] | 14 nM | 27 nM |
| UAAAAACAUGAGGAUCACCCAUGUGAGAACAUGGGAGGAUAUACGAAGACGAAAGUCAAAGUAGAAGGCCUAAAAU [Mat - Same State 1 - Mod - D171] | 302 nM | 15.6 nM |
| UACAGGAAGAGAGAGGAUAUCCAAAGGAAAACAUGAGGAUCACCCAUGUAAAAGGUAGGAAAUUGGGAGAAGGCUCAAGAGAGAG [salish99-ss2-090] | 21 nM | 32 nM |
| UAUCAUUACACGAAGGAUAUCGAAAAAAGAACAUGAGGAUCACCCAUGUAAAAUAAAACACAGAACGAGAAGGUCGAGGGUGAAG [JR_SS002_Sub701] | 15.8 nM | 34.2 nM |
| UAUCAUUACACGAAGGAUAUCGAAAAAAGAACAUGAGGAUCACCCAUGUGAAAUAAAAUACAGAACGAGAAGGUCGAGGGUGAAG [JR_SS002_Sub702] | 23.1 nM | 30.3 nM |
| UAUCAUUACACGAAGGAUAUCGAUAAUUGAACAUGAGGAUCACCCAUGUGAUAUAUUUUACAGUUCGAGAAGGUCGAGGGUGAAG [JR_SS002_Sub705] | 16.6 nM | 32.4 nM |
| UGAAAACAUGAGGAUCACCCAUGUAAAAACAUGGGAGGAUAUUGAAAAAAAAAAAAAAAACAAGAAGGCCCAAAAA [crooked] | 37.7 nM | 25.3 nM |
